The numbers were not newly measured in publication PMC8160820, which cites them from elsewhere.

For this data set, the target named is PEDF-R (Homo sapiens) (UniProt Q96AD5).
Sequence of UniProt Q96AD5 (Q96AD5 whole entry): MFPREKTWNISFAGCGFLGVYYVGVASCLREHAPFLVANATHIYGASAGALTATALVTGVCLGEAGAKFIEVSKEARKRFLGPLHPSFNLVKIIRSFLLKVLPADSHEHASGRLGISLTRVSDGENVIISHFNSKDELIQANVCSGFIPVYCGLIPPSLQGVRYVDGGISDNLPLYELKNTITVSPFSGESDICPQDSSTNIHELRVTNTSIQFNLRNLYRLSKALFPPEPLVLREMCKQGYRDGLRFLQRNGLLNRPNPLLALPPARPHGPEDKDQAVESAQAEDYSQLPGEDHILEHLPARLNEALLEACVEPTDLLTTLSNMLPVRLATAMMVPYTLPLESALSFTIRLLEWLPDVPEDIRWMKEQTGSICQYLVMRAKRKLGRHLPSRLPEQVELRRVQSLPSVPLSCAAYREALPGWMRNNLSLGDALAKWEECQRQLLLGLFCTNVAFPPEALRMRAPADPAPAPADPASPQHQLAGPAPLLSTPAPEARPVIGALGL

On to PEDF (from UniProt P36955), for which the equilibrium dissociation constant (Kd) (in general, the concentration at which binding is half-saturated) was 3 nM.
